For one data set, the system named is PRDIII promoter. Description: Dual-luciferase reporter assay (PRDIII, SeV infection). Format: cell-based, human. The following applies: 293T cells, SeV 100 HAU/ml. On the procedure:
HEK293T cells, seeded in 24-well plates (˜50% cell density), were transfected with IFN-β, PRDIII (ISRE) or NF-κB reporter plasmid cocktail (50 ng of luciferase reporter plasmid and 5 ng of pRL Renilla luciferase control vector) and expression plasmid (empty plasmid, one or multiple plasmids depending on the experiment) by calcium phosphate precipitation. Cells were infected with SeV (100 HA/ml), HSV-1 for 16 h, transfected with Poly [I:C] for 16 h or directly harvested 30-36 h post transfection. Whole cell lysates were used to determine the activity of firefly luciferase and renilla luciferase by a microplate reader (FLUOstar Omega).
(In general: A reporter such as luciferase makes a cellular process visible.)

Data set [1] has as its system cGAS. Put plainly: In vitro deamidation assay (cGAS). The following applies: purified proteins. It is filed as biochemical, mouse. Here is the method:
The in vitro deamidation assay was performed as previously described. Briefly, 5 μg of purified MBP-mcGAS or MBP-mcGAS-DDEE mutant on amylose resin was incubated with 0.5 gig of purified FLAG-UL37 or FLAG-UL37C819S at 30° C. for 45 min in deamidation buffer (50 mM Tris-HCl [pH 7.5], 100 mM NaCl, and 5 mM MgCl2). Then the reaction was stopped by adding rehydration buffer and the eluted proteins were analyzed by two-dimensional gel electrophoresis.

Data set [2] concerns cGAS. Put plainly: cGAMP reporter assay (THP1-Lucia). Format: cell-based, human. The following applies: THP-1 cells transfected with HT-DNA (HT-DNA alone approximately 60 ng). Here is the method:
THP-1 Cells were transfected with HT-DNA (2 μg/ml) or infected with HSV-1 virus for 6 h. Cell extracts were prepared by heating at 95° C. for 5 min to denature most proteins, and then the precipitated proteins were removed by centrifugation. The supernatant containing cGAMP was delivered to digitonin-permeabilized (2.5 μg/ml for 30 min) THP1-Lucia cells at 37° C. for 30 min. The cells were cultured for another 20 h before Lucia reporter activity was measured according to the manufacturer's instruction (InvivoGen). Pure cGAMP was diluted and used as standard for the assay.

The target of data set [3] is T1, cGAS (Mus musculus, UniProt Q8C6L5).
T1 construct: Purified mcGAS(141-507) was deamidated by purified FLAG-UL37 in vitro; made in house; host or cells: E. coli BL21 (DE3)
T1 sequence (Q8C6L5 141-507): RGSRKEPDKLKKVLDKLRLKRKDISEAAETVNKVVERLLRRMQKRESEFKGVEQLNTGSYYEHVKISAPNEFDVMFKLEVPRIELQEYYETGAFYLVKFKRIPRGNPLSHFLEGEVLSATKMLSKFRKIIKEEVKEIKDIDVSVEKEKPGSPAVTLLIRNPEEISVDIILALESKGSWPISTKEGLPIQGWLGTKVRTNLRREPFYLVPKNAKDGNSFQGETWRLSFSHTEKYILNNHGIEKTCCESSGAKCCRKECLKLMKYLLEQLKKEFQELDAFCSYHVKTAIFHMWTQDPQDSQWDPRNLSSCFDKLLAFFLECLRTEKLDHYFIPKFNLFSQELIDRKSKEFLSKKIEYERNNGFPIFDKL
Put plainly: In vitro cGAMP activity assay. The following applies: in vitro cGAMP reaction. Format: biochemical. On the procedure: 1 μM of MBP-cGAS or mutant proteins was mixed with 100 μM ATP and 100 μM GTP and 10 μCi [α-P32]-ATP in reaction buffer (20 mM Tris-Cl [pH 7.5], 150 mM NaCl, 5 mM MgCl2, 1 mM dithiothreitol [DTT]). After 2 h of incubation at 37° C., 2 μl of reaction solution was spotted onto PEI-Cellulose thin layer chromatography plate (Sigma). Reaction products were resolved with running buffer (1 M (NH4)2SO4, 1.5 M KH2PO4, pH 3.8). The TLC plates were dried and scanned with Phosphoimager (Fuji).

In data set [4] the test system is cGAS. Description: Real-time PCR in THP-1 cells stably expressing UL37, transfected with HT-DNA. It is filed as cell-based, human. The following applies: THP-1 stable cell lines. On the procedure:
THP-1 or L929 cells were infected with HSV-1 (MOI=5) or stimulated with HT-DNA (2 μg/ml) or cGAMP (2 μg/ml) for 6 h unless specifically indicated otherwise. Cells were washed with cold PBS, and total RNA was extracted by using TRIzol Reagent (Invitrogen). RNA was digested with DNase I (New England Biolabs) to remove genomic DNA. One microgram of total RNA was used for reverse transcription with PrimeScript Reverse Transcriptase (Clontech) according to the manufacturer's instruction. Approximately 0.5% of the cDNA was used as template in each quantitative real-time PCR (qRT-PCR) reaction with SYBR master mix (Applied biosystems).
Lentivirus production was carried out in 293T cells as described previously. THP-1 or L929 cells were infected with lentivirus containing UL37 or UL37 C819S mutant. After 36 h, THP-1 cells were selected with puromycin at 1 μg/ml and L929 cells were selected with puromycin at 5 μg/ml.

Data set [5] deals with RIG-I. Description: Two-dimensional gel electrophoresis of RIG-I deamidation in cells. Format: cell-based, human. The following applies: 2-DGE and immunoblotting. Here is the method:
Cells (1×10^6) were lysed in 150 μl rehydration buffer (8 M Urea, 2% CHAPS, 0.5% IPG Buffer, 0.002% bromophenol blue) by three pulses of sonication and whole cell lysates were centrifuged at 20,000 g for 15 min. Supernatants were loaded to IEF strips for focusing with a program comprising: 20 V, 10 h (rehydration); 100 V, 1 h; 500 V, 1 h; 1000 V, 1 h; 2000 V, 1 h; 4000 V, 1 h; 8000 V, 4 h. After IEF, strips were incubated with SDS equilibration buffer (50 mM Tris-HCl [pH8.8], 6 M urea, 30% glycerol, 2% SDS, 0.001% Bromophenol Blue) containing 10 mg/ml DTT for 15 min and then SDS equilibration buffer containing 2-iodoacetamide for 15 min. Strips were washed with SDS-PAGE buffer, resolved by SDS-PAGE, and analyzed by immunoblotting.
(In general: In western blotting, separated proteins are transferred to a membrane and probed.)

The subject of the next data set is HSV-1. Description: HSV-1 plaque assay in HEK293 cells stably expressing RIG-I wild-type or mutants. It is filed as cell-based. The following applies: HEK293 stable cells, HSV-1 MOI=0.5.
Another data set concerns IFN-β and RANTES. Put plainly: Cytokine ELISA, HEK293 RIG-I stable cell lines infected with HSV-1. Format: cell-based, human. The following applies: HSV-1-infected cells, supernatant at 16 hpi. Here is the method:
Commercial cytokine ELISA kits used in this study include: human IFN-β (PBL Assay Science) and human RANTES (R&D Systems). Cytokine levels in the supernatant from cultured cells were assessed according to manufacturer's instruction. Absorbance was determined with FLUOstar Omega (BMG Labtech.).

Data set [6] concerns RIG-I. Put plainly: Gel filtration of purified RIG-I (oligomerization). Format: cell-based, human. The following applies: cells infected with HSV-1, 4 h. On the procedure: Virus-infected HEK293T/Flag-RIG-I or HeLa/Flag-RIG-I stable cells were harvested and lysed in cold Triton X-100 buffer (20 mM Tris, pH 7.5, 150 mM NaCl, 1.5 mM MgCl2, 20 mM β-glycerophosphate, 1 mM sodium orthovanadate, 10% glycerol, 0.5 mM EGTA, 0.5% Triton X-100, 1 mM PMSF and 10 μg/ml leupeptin). Centrifuged supernatant was filtered and subjected to incubation with anti-Flag-conjugated agarose beads for 2 h at 4° C. Beads were then extensively washed and proteins were eluted with 3× Flag peptide at 0.2 mg/ml.
Gel filtration with superose 6 was performed as described previously. Briefly, eluted proteins (200-300 μl) were loaded to superose 6 column and subjected to gel filtration analysis with Buffer B (20 mM Tris-HCl, pH 7.6, 150 mM NaCl, 1 mM EDTA, 0.5 mM EGTA, 0.5% Triton X-100, 20 mM NaF, 20 mM β-glycerophosphate, 1 mM Na3VO4, 2.5 mM metabisulphite [sodium salt], 5 mM benzamidine). Elution was collected in 0.5 ml fractions and aliquots of fractions were analyzed by immunoblotting.
(In gel filtration, larger molecules generally elute earlier.)

Turning to UL37C819S, the “blockade of SeV-induced PRDIII promoter activation” value in the data set on PRDIII promoter was “greatly impaired blockade of PRDIII induction by SeV”. Further, the “cGAS deamidation in vitro (2DGE shift)” value in the data set with cGAS [1] is “failed to do so”. Also, the “intracellular cGAMP” value with cGAS [2] is ~85 ng per one million THP-1 cells. For the same molecule, in the data set with cGAS [3], the “effect of added UL37 on cGAS-mediated cGAMP production” value is recorded as “less, albeit still significant, inhibition of cGAMP production”. The “effect on expression of IFNB1, ISG56 and CXCL10 induced by HT-DNA” value in the data set on cGAS [4] is “no detectable effect on IFNB1 and ISG56 expression”.

B1: RIG-I-QQ (protein)
chain: MTTEQRRSLQAFQDYIRKTLDPTYILSYMAPWFREEEVQYIQAEKNNKGPMEAATLFLKFLLELQEEGWFRGFLDALDHAGYSGLYEAIESWDFKKIEKLEEYRLLLKRLQPEFKTRIIPTDIISDLSECLINQECEEILQICSTKGMMAGAEKLVECLLRSDKENWPKTLKLALEKERNKFSELWIVEKGIKDVETEDLEDKMETSDIQIFYQEDPECQNLSENSCPPSEVSDTNLYSPFKPRNYQLELALPAMKGKNTIICAPTGCGKTFVSLLICEHHLKKFPQGQKGKVVFFANQIPVYEQQKSVFSKYFERHGYRVTGISGATAENVPVEQIVENNDIIILTPQILVNNLKKGTIPSLSIFTLMIFDECHNTSKQHPYNMIMFNYLDQKLGGSSGPLPQVIGLTASVGVGDAKNTDEALDYICKLCASLDASVIATVKHNLEELEQVVYKPQKFFRKVESRISDKFKYIIAQLMRDTESLAKRICKDLEQLSQIQNREFGTQKYEQWIVTVQKACMVFQMPDKDEESRICKALFLYTSHLRKYQDALIISEHARMKDALDYLKDFFSNVRAAGFEEIEQDLTQRFEEKLQELESVSRDPSNENPKLEDLCFILQEEYHLNPETITILFVKTRALVDALKNWIEGNPKLSFLKPGILTGRGKTNQNTGMTLPAQKCILDAFKASGDHNILIATSVADEGIDIAQCNLVILYEYVGNVIKMIQTRGRGRARGSKCFLLTSNAGVIEKEQINMYKEKMMNDSILRLQTWDEAVFREKILHIQTHEKFIRDSQEKPKPVPDKENKKLLCRKCKALACYTADVRVIEECHYTVLGDAFKECFVSRPHPKPKQFSSFEKRAKIFCARQNCSHDWGIHVKYKTFEIPVIKIESFVVEDIATGVQTLYSKWKDFHFEKIPFDPAEMSK
In the case of B1, the “charge shift of RIG-I (deamidation) upon UL37 expression or recombinant HSV-1 infection” value in the data set with RIG-I [5] was “deamidation-resistant”. Besides, the “reduction of HSV-1 replication / titer” value in the data set on HSV-1 is 75-90%. Besides, in the data set with IFN-β and RANTES, the “IFN-β and RANTES in supernatant” value is “Increased IFN-β and RANTES expression”. Further, the “size of RIG-I elution fractions (oligomerization)” value with RIG-I [6] is 440-670 kDa.

The values above are taken from patent US10596234B2, “Compositions and methods to inhibit viral replication” (priority 2016, dated 2020).
